The source of these data is paper PMC2935179.

Where two headings read alike, the source gives them in different places.

Data set [1] concerns the target T1, Δ22 (FLI portion of EWS/FLI);FLI ETS domain (;, UniProt Q01543;Q01543 220-452;270-371, |).
T1 sequence 1: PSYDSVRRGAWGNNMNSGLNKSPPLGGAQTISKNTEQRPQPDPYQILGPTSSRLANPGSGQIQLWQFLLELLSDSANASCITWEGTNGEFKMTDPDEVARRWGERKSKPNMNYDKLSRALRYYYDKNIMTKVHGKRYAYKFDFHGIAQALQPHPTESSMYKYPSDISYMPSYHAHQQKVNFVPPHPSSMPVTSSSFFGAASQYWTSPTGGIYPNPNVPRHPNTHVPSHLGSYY
T1 sequence 2: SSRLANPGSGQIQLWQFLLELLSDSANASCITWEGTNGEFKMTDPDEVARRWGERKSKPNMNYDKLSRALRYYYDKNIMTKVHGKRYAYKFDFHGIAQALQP
The data set can be described thus: EMSA.

The target in data set [2] is T2, Δ22 (FLI portion of EWS/FLI) (UniProt Q01543 220-452).
T2 sequence: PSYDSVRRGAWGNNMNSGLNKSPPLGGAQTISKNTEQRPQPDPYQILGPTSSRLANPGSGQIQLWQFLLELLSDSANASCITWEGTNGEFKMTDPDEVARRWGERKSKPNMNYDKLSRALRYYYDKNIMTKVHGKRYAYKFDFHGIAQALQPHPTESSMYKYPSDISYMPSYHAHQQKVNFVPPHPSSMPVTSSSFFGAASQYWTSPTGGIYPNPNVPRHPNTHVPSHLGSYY
The data set can be described thus: fluorescence polarization stoichiometry.

The target in data set [3] is T3, ETS1 (UniProt P14921 1-441).
T3 sequence: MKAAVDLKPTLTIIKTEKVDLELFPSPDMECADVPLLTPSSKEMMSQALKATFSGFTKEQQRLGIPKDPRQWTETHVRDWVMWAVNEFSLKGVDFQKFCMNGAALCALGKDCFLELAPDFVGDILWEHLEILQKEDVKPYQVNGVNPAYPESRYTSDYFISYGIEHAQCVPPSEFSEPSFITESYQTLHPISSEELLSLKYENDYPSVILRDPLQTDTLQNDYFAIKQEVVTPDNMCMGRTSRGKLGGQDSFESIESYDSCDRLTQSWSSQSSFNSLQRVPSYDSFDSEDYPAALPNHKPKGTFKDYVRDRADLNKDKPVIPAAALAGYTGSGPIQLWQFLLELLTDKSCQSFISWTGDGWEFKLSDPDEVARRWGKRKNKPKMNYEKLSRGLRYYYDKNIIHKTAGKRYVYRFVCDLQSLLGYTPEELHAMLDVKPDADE
The data set can be described thus: EMSA.

Data set [4] addresses ELF1 (UniProt P32519 1-619). The data set can be described thus: EMSA.
The target in data set [5] is T1, Δ22 (FLI portion of EWS/FLI);FLI ETS …. The data set can be described thus: EMSA. The source holds these as a separate data set.

ELF1, sequence (P32519 whole entry): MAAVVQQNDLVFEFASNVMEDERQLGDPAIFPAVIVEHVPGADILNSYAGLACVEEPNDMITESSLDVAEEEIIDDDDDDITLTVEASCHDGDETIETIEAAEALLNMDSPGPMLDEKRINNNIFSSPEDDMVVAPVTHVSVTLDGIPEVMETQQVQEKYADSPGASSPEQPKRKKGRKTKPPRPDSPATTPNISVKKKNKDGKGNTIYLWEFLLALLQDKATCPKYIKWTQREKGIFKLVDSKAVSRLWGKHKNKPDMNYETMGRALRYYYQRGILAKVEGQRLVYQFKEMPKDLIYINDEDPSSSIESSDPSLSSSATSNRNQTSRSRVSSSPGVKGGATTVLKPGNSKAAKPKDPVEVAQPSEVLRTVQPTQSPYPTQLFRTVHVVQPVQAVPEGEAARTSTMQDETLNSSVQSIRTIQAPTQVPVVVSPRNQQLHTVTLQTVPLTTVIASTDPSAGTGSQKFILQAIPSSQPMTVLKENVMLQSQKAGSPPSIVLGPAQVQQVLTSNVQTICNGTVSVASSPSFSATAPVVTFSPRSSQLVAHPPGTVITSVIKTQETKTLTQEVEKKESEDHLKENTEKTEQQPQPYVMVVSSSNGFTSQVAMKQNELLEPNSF

B1: 7 GGAA motifs (dsDNA)
DNA 1: TGCAGGAAGGAAGGAAGGAAGGAAGGAAGGAAAGCT
DNA 2: AGCTTTCCTTCCTTCCTTCCTTCCTTCCTTCCTGCA
Consider B1, for which the binding result in data set [1], in data set [2], in data set [3] and in data set [4] was “binds” each time.

B2: 5 GGAA motifs (dsDNA)
DNA 1: TGCAGGAAGGAAGGAAGGAAGGAAAGCT
DNA 2: AGCTTTCCTTCCTTCCTTCCTTCCTGCA
With B2, the binding result in data set [1] and in data set [2] was “binds” in each case.

B3: 6 GGAA motifs (dsDNA)
DNA 1: TGCAGGAAGGAAGGAAGGAAGGAAGGAAAGCT
DNA 2: AGCTTTCCTTCCTTCCTTCCTTCCTTCCTGCA
As for B3, the binding result in data set [1] and in data set [2] was “binds” throughout.

B4: 4 GGAA motifs (dsDNA)
DNA 1: TGCAGGAAGGAAGGAAGGAAAGCT
DNA 2: AGCTTTCCTTCCTTCCTTCCTGCA
Consider B4, for which, in data set [5], the binding result is “binds”.
